Measurements as given in article doi:10.1101/2025.09.11.675621, “Effects of Nanopore Confinement on the Conformational, Dynamical, and Self-Assembly Properties of an FG-Repeat Peptide” (bioRxiv, 2025).
Like-named read-outs stand apart in the source and are kept apart here. Primed or numbered codes have the meaning given here. No end group written: not given here. *: point of attachment. MBPA″ = 4-maleimidobutylphosphonic acid, conjugated to the N-terminal cysteine, O=C1CC(*)C(=O)N1CCCCP(=O)(O)O; MBPA = 4-maleimidobutylphosphonic acid, O=C1CC(*)C(=O)N1CCCCP(=O)(O)O

Tests used:
[1] = 4° C; thermodynamic, from 7.1 mM (23 mg/ml) solutions in Bis-Tris buffer pH 6.5 (printed 0.2 mM), incubated four days with brief bath sonication once per day; centrifuged 16,000 x g 15 min, 0.1 μm filter; absorbance at 260 nm, triplicate
Method: After incubation, solutions were centrifuged at 16,000 × g for 15 min, yielding visible pellets at each temperature. Supernatants were then passed through 0.1 μm centrifugal filters (Millipore Ultrafree, 0.5 ml volume) and diluted with H2O by factors of four. Peptide concentrations were determined from absorbance measurements at 260 nm, performed in triplicate, using an extinction coefficient of 1070 M^−1 cm^−1 that was determined from the absorbance of the initial solutions.

[2] = Aggregation / fibril formation in free solution (TEM, solubility); format: physicochemical; conditions: 10 mM peptide, Bis-Tris buffer pH 6.5, after six days of incubation at 4° C, 24° C or 37° C
Method: Aggregated MBPA-C-FG30 for transmission electron microscopy (TEM) was prepared by dissolving 2.0 mg of purified and lyophilized MBPA-C-FG30-LSAFTG in 60 μl of 0.2 M Bis-Tris buffer (pH 6.5) to produce a 10 mM peptide solution. The solution was evenly divided into three 20 μl aliquots, each transferred into a 0.2 ml tube. The three tubes were incubated quiescently for 6 days at temperatures of 4° C, 24° C, and 37° C. After incubation, each sample was briefly vortexed, and 3 μl was withdrawn for subsequent TEM imaging, as described below.
Transmission electron microscope (TEM) images were acquired with an FEI Morgagni microscope, operating at 80 kV, and a side-mounted Advantage HR camera (Advanced Microscopy Techniques). TEM grids were lacey carbon on 300 mesh copper (Electron Microscopy Sciences), upon which carbon films were deposited by flotation. Solutions containing aggregated MBPA-C-FG30 were diluted 100-fold in H2O, then adsorbed in 10 μl aliquots to glow-discharged grids for 90 s. Grids were blotted, rinsed with H2O, blotted, rinsed again, blotted, and stained with 2% w/v uranyl acetate for 15 s before final blotting and drying in air.
Figure 5: TEM images of aggregated MBPA-C-FG30, negatively stained with uranyl acetate. […]

[3] = equilibrium solubility (centrifugation, filtration, absorbance of the supernatant at 260 nm); 7.1 mM solution in Bis-Tris buffer pH 6.5, 4 days at 40 °C with brief daily bath sonication; 16,000 x g 15 min, 0.1 um filter; monomer left over aggregates; conditions: other: equilibrium solubility (centrifugation, filtration, absorbance of the supernatant at 260 nm)
[4] = equilibrium solubility (centrifugation, filtration, absorbance of the supernatant at 260 nm); 7.1 mM solution in Bis-Tris buffer pH 6.5, 4 days at 24 °C with brief daily bath sonication; 16,000 x g 15 min, 0.1 um filter; monomer left over aggregates; conditions: other: equilibrium solubility (centrifugation, filtration, absorbance of the supernatant at 260 nm)
[5] = equilibrium solubility (centrifugation, filtration, absorbance of the supernatant at 260 nm); 7.1 mM solution in Bis-Tris buffer pH 6.5, 4 days at 4 °C with brief daily bath sonication; 16,000 x g 15 min, 0.1 um filter; monomer left over aggregates; conditions: other: equilibrium solubility (centrifugation, filtration, absorbance of the supernatant at 260 nm)

Molecule | equilibrium solubility [1] [mM] | morphology of aggregated material (negative-stain TEM) [2] | equilibrium solubility [3] [mM] | equilibrium solubility [4] [mM] | equilibrium solubility [5] [mM]
MBPA-C-FG30: C-FG30 with 4-maleimidobutylphosphonic acid conjugated to the N-terminal cysteine (C(MBPA″)FGNNKLTTFGSSTTSAPSFGTTSGGLFGNK-NH2; also: uniform 15N,13C labels at L6, S11, A16, F19, T22, G28 or at G2, G10, G20, G29 (FG30 numbering)) | 4.5 ± 0.2 | straight, unbranched assemblies |  |  | 
C(MBPA)FGNNKLTTFGSSTTSAPSFGTTSGGLFGNK-NH2 (also: uniform 15N,13C labels at L6, S11, A16, F19, T22, G28 (LSAFTG) or G2, G10, G20, G29 (4G)) [MBPA-C-FG30] |  |  | 1.92 ± 0.08 | 1.60 ± 0.04 | 4.5 ± 0.2
